Test results reported in patent US20080261267A1, “Cellulases from Rumen” (priority 2004, published 2008).

Tests used:
Assay type in all cases: biochemical
[1] = Detergent resistance (effect of surfactants on activity)
Method: The detergent resistance or in other words the effect of surfactants on the activity of the polypeptide of the invention was measured. […] Also, the effect of several commonly used inhibitors on the activity of the polypeptide of the invention was investigated. Sulfhydryl inhibitors such as N-ethylmaleimide, iodoacetate and p-chloromercuribenzoate were all inhibitory. The chelating agents EDTA (ethylenediaminetetraacetic acid) and EGTA (ethyleneglycoltetraacetic acid) a more efficient chelator of Ca^2+ (inhibition >30%) and O-phenanthroline (inhibition >71%) had essentially no effect on the activity of the polypeptides or were slightly stimulatory. In summary, the polypeptides of the invention are well suited to be used for the treatment of cellulosic textiles or fabrics, especially as an ingredient in a detergent composition, because of their high activity at high pH and high stability against metal ions or various components of laundry products such as surfactants, chelating agents or proteinases. In general, they are also suited to be used in compositions containing several commonly used inhibitors.
(§1) FIG. 3 represents Table 3 giving an overview over the biochemical properties of the cellulases according to the invention. Reaction was performed at the optimum pH and temperature for each done using CMC as substrate. […] The values for clones pBKRR.1, 9, 11, 13, 14, 16 and 22 are depicted. For each clone the following data are given: • maximum pH at which the remaining activity after 24 h incubation at the indicate pH is >90% (column “Stable at pH”). […] Activity was measured after 2 h incubation and compared with a control reaction in buffer lacking dimethylsulfoxide, • detergent resistance given by the remaining activity in the corresponding buffer (optimum pH) containing the indicate detergent at a concentration for 0 to 3%. […] The effect of mono- (Na^+, K^+, NH4^+, and divalent cations (Ca^2+, Mn^2+, Mg^2+, Sr^2+, Fe^2+, Cu^2+, Ni^2+, Co^2+, Zn^2+) was first examined by treating the enzyme with chelating agents (EDTA and EGTA) to remove any endogenous divalent cations, followed by adding cations to the reaction mixture.
To study the effect of cations, inhibitors and surfactants on endoglucanase activity, the conditions were as follows: All cations tested were added as chloride salts and tested at a concentration of 10 mM. […] The effects of detergents on the endoglucanase activity was analysed by adding of 1-3% (wt/vol) detergent to the enzyme solution. In all cases, the enzyme activity was assayed in triplicate using the standard cellulose assay described above and the residual activity was expressed as percent of the control value (without addition of chemicals).

[2] = pH-dependent activity and pH stability; conditions: cell lysates; CMC; 40° C.
Method: (§2) FIG. 3 represents Table 3 giving an overview over the biochemical properties of the cellulases according to the invention. Reaction was performed at the optimum pH and temperature for each done using CMC as substrate. […] The values for clones pBKRR.1, 9, 11, 13, 14, 16 and 22 are depicted. For each clone the following data are given: • maximum pH at which the remaining activity after 24 h incubation at the indicate pH is >90% (column “Stable at pH”). […] Activity was measured after 2 h incubation and compared with a control reaction in buffer lacking dimethylsulfoxide, • detergent resistance given by the remaining activity in the corresponding buffer (optimum pH) containing the indicate detergent at a concentration for 0 to 3%. […]
(§3) FIG. 4 a-c represent the results of the determination of pH and temperature optima showing graphically views of the pH-dependence activity and temperature-dependence activity of the polypeptides according to the invention. The pH optima of rumial endoglucanases were measured under conditions described in Example 5: 4% CMC, 0.5 mL of 50 mM buffer at the corresponding pH and 0.1 mg E. coli cell lysates, for 5-30 min, at 40° C. Effect of temperature on endoglucanase activity was measured in 50 mM sodium acetate buffer pH 5.6. […]

Cation dependence = conditions: 10 to 100 mM
Method: as §1
[…] Inhibitors such as N-ethylmalemide, iodoacetate and p-chloromercuribenzoate at concentration from 1-5 mM were incubated in the presence of the enzyme for 30 min (30° C.) prior to the addition of the substrate (CMC). The effects of detergents on the endoglucanase activity was analysed by adding of 1-3% (wt/vol) detergent to the enzyme solution. In all cases, the enzyme activity was assayed in triplicate using the standard cellulose assay described above and the residual activity was expressed as percent of the control value (without addition of chemicals).

[3] = Thermal activity and thermostability; conditions: at the pH optima; CMC
Method: as §2, §3

Molecule | effect of SDS on activity ([1]; SDS 1 mM or higher) | effect of Triton X-100 on activity ([1]; Triton X-100 up to 1-3%) | activity at alkaline (pH 9.0-10.0) and acidophilic (3.5-4.0) conditions [2] | activity in the presence of SDS (% more active and stable) ([1]; SDS 1-3%, 2 h incubation, versus control without detergent) | activity in the presence of Triton X-100 (% more active and stable) ([1]; Triton X-100 1-3%, 2 h incubation, versus control without detergent, pH and temperature per clone) | stimulatory effect of Mg^2+ (Cation dependence; chloride salt) | influence of mono- and divalent cations on activity (Cation dependence; chloride salts, after EDTA and EGTA treatment) | temperature of improved activity and thermostability [3]
pBKRR.22: rumen endo-beta-1,4-glucanase, sequences FIG. 11/19 (protein, Description of sequence sequence derived from genomic DNA library from rumen ecosystem, particularly amino acid sequence of clones pBKRR 22, 6, 8 and 23;(see Figure 19)) MLLASFSLFSCGGSDGDDSTPTPSVSLQLVSQSIAEGAQVDAASTTVLTLNYNNPVRVTGNGVTLNGIAVKAKVSGNTSVEIPLTLVEGTVYTLKVAWGAIVAAADGKVVAPEFTLNFTTKGNQQPPIDENSPIAKKMGWGWNLGNHFDTSSGADGVRPQWGYWDNAKPTQVLYNNLRNAGTSTVRIGVTWGNYQNTSNWDIDANYIAEVRQNVEWAEAAGLNVILNMHHDEYWLDIKGAANNSSTNTNIKNRIEKTWKQIAEAFKDKGEFLIFESFNEIQDGGWGWGANRTDGGKQYKTLNEWNQLVVNTIRATGGNNATRWIGIPSYAANPSLALETGFVLPTDAANRLMVSVHFYDPSNFTLSPYVSDDSSEYKSGGYSEWGHTAAKGKADTGSNEDHVVAIFKKLHDKFVAKNIPVYIGEYGCVMHKNTRSNYFRNYYLEYVCRAAHEYGMPLCIWDNNQTGGGNEHHGYFNHTDGQYLNAMESLVKTMIKAATSDDASYTLESVYNKAPK | inhibited by SDS at concentrations higher than 1 mM | resistant to Triton X-100 up to 1-3% | without variation of enzyme activity | – | – | – | – | –
pBKRR.14: rumen endoglucanase, sequences FIG. 16/24; also capable of hydrolyzing xylan (protein, Description of sequence sequence derived from genomic DNA library from rumen ecosystem, particularly amino acid sequence of clones pBKRR 14 and 20-1; RR14=RR20-1;(see Figure 24), also capable of hydrolyzing xylan) MINVLQHHPEVELSVDKTSVSFNRSGGEETFTVTSSTQPHVSADVSWVVVETGKIDKDHHTEVRVLAGANRKEASAGTLTVSCSDKKVSVSVKQEAFVAPSVASTTAVTPQMVFDAMGPGWNMGNHMDAISNGVSGETVWGNPKCTQATMDGVKAAGYKAVRICTTWEGHIGAAPAYALEQKWLDRVAEIVGYAEKAGLVAIVNTHHDESYWQDISKCYNNAANHEKVKDEVFSVWTQIAEKFKDKGEWLVFESFNEIQDGGWGWSDAFRKNPDAQYKVLNEWNQTFVDAVRSTGGQNATRWLGIPGYACNPGFTIAGLVLPKDYTTANRLMVAVHDYDPYDYTLKDPLIRQWGHTADADKRPSGDNEKAVVDVFNNLKAAYLDKGIPVYLGEMGCSRHTAADFPYQKYYMEYFCKAAADRLLPMYLWDNGAKGVGSERHAYIDHGTGQFVDEDARTLVGLMVKAVTTKDASYTLESVYNSAP | – | – | – | 161% | 134% | 127% | not influenced | 70 °C
